One molecule from paper PMC6787036 can be followed below.

The data set deals with human alpha-thrombin (Homo sapiens, UniProt P00734;P00734 328-363;364-622). Description: affinity chromatography (HPLC, aptamer monolith); 5 mM Mg2+, pH 8.0; eluted with 2 M NaClO4; 10 mM Tris HCl, 5 mM MgCl2 (varied 0-20 mM), pH 8.0 (varied 4-10), 0.3 mL/min, elution with 2 M NaClO4; temperature not stated.

B1: TBA (15-mer thrombin binding aptamer) (structured_DNA)
DNA: GGTTGGTGTGGTTGG
modifications: 5' amino-C6 (5AmMC6), covalently immobilised on poly(EDMA-co-GMA) monolith by Schiff-base (EDA/glutaraldehyde)
Regarding B1, the binding result was “binds”.
